Experimental data as given in US20200148784A1 (AGILVAX, published 2020).

T1: human-xCT ECD3 peptide (human)
T1 construct: Coated at 1 µg/mL
T1 peptide: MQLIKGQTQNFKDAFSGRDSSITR

B1: 11D1/H10 subclone A1 (antibody)
heavy: QVQLQQSGAELVRPGASVKLSCKALGYTFTDYEMHWVKQTPVHGLEWIGAIHPGSGGTAYNQKFKGKATLTADKSSSTAYMELSSLTSEDSAVYYCTRPLYYRYPYYFDYWGQGTTLTVSSESQSFPNVFPLVSCESPLSDKNLVAMGCLARDFLPSTISFTWNYQNNTEVIQGIRTFPTLRTGGKYLATSQVLLSPKSILEGSDEYLVCKIHYGGKNRDLHVPIPAVAEMNPNVNVFVPPRDGFSGPAPRKSKLICEATNFTPKPITVSWLKDGKLVESGFTTDPVTIENKGSTPQTYKVISTLTISEIDWLNLNVYTCRVDHRGLTFLKNVSSTCAASPSTDILTFTIPPSFADIFLSKSANLTCLVSNLATYETLNISWASQSGEPLETKIKIMESHPNGTFSAKGVASVCVEDWNNRKEFVCTVTHRDLPSPQKKFISKPNEVHKHPPAVYLLPPAREQLNLRESATVTCLVKGFSPADISVQWLQRGQLLPQEKYVTSAPMPEPGAPGFYFTHSILTVTEEEWNSGETYTCVVGHEALPHLVTERTVDKSTGKPTLYNVSLIMSDTGGTCY
light: QIVLTQSPAIMSASPGEKVTISCSASSSVSYMYWYQQKPGSSPKPWIYRTSNLASGVPARFSGSGSGTSYSLTISSMEAEDAATYYCQQYHSYPLTFGAGTKLELKRADAAPTVSIFPPSSEQLTSGGASVVCFLNNFYPKDINVKWKIDGSERQNGVLNSWTDQDSKDSTYSMSSTLTLTKDEYERHNSYTCEATHKTSTSPIVKSFNRNEC
B2: 11D1/H10 subclone E1 (antibody)
heavy: B1 heavy
light: B1 light
notes: IgM kappa
B3: 11D1/H10 subclone A5 (antibody)
heavy: B1 heavy
light: B1 light
notes: IgM kappa
B4: 11D1/H10 subclone D5 (antibody)
heavy: B1 heavy
light: B1 light
notes: IgM kappa
B5: 11D1/H10 subclone B9 (antibody)
heavy: B1 heavy
light: B1 light
notes: IgM kappa

Target: T1, human-xCT ECD3 peptide
Test: ELISA of subclone supernatant against xCT

| Binder | ELISA O.D. 450 |
| --- | --- |
| B1 | ≥ 0.4 |
| B2 | ≥ 0.4 |
| B3 | ≥ 0.4 |
| B4 | ≥ 0.4 |
| B5 | ≥ 0.4 |
